Measured values: the supplement of paper PMC9233669
Variants at the floor of the assay were thinned out.

Experiments:
[1] = tested on: biotinyl-Leu-oxazolone; test: self-aminoacylation, catalytic enhancement (BLO) (fold over background); higher = more active; k-Seq, kA / k0A0; sequences stand for … in GGGAAUGGAUCCACAUCUACGAAUUC…UUCACUGCAGACUUGACGAAGCUG
Outline: (§1)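 Catalytic enhancement equals the median kA over the uncatalyzed rate, the latter read from the low-activity peak of a bimodal Gaussian fit. Values of kA came from fitting each sequence's fraction reacted to a pseudo-first-order model, with 1000 bootstraps. Reacted RNA was captured with streptavidin and quantified by triplicate qPCR and Illumina sequencing after 90 minutes at room temperature with 2–1250 μM biotinyl-aminoacyl-oxazolone and 0.43 μM mutagenized RNA pools bearing a 21-nt variable region.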

[2] = tested on: biotinyl-Ile-oxazolone; test: self-aminoacylation, catalytic enhancement (BIO) (fold over background); higher = more active; k-Seq, kA / k0A0; sequences stand for … in GGGAAUGGAUCCACAUCUACGAAUUC…UUCACUGCAGACUUGACGAAGCUG
Outline: as §1

[3] = tested on: biotinyl-Met-oxazolone; test: self-aminoacylation, catalytic enhancement (BMO) (fold over background); higher = more active; k-Seq, kA / k0A0; sequences stand for … in GGGAAUGGAUCCACAUCUACGAAUUC…UUCACUGCAGACUUGACGAAGCUG
Outline: as §1

[4] = tested on: biotinyl-Val-oxazolone; test: self-aminoacylation, catalytic enhancement (BVO) (fold over background); higher = more active; k-Seq, kA / k0A0; sequences stand for … in GGGAAUGGAUCCACAUCUACGAAUUC…UUCACUGCAGACUUGACGAAGCUG
Outline: as §1

[5] = tested on: biotinyl-Phe-oxazolone; test: self-aminoacylation, catalytic enhancement (BFO) (fold over background); higher = more active; k-Seq, kA / k0A0; sequences stand for … in GGGAAUGGAUCCACAUCUACGAAUUC…UUCACUGCAGACUUGACGAAGCUG
Outline: as §1

[6] = tested on: biotinyl-Trp-oxazolone; test: self-aminoacylation, catalytic enhancement (BWO) (fold over background); higher = more active; k-Seq, kA / k0A0; sequences stand for … in GGGAAUGGAUCCACAUCUACGAAUUC…UUCACUGCAGACUUGACGAAGCUG
Outline: as §1

Row | Sequence | self-aminoacylation [1] | self-aminoacylation [2] | self-aminoacylation [3] | self-aminoacylation [4] | self-aminoacylation [5] | self-aminoacylation [6]
1 | AUUACCCUAGUCAUUGAGUGA [Fam2.1 aminoacylation ribozyme variant] | 6.93 | 3.69 | 6.69 | 3.86 | 25.9 | 9.31
2 | AUUCCCCUGGUCAUCGAGUGA [Fam2.1 aminoacylation ribozyme variant] | 6.99 | 4 | 6.93 | 4.37 | 45.7 | 8.4
3 | AUUACACUGGUCAUCUAGUGA [Fam2.1 aminoacylation ribozyme variant] | 6.24 | 3.07 | 5.64 | 2.65 | 35 | 6.76
4 | CUACUUCAAAGAACCGGUCUG [Fam1A.1 aminoacylation ribozyme variant] | 0.847 | 0.994 | 0.715 | 0.815 | 0.687 | 0.734
5 | ACUUCCCUGGUCAUCGAGUGA [Fam2.1 aminoacylation ribozyme variant] | 9.49 | 4.96 | 9.66 | 5.69 | 41.8 | 12.1
6 | AAGUUUGCUAAUAGUAUCAAG [Fam3.1 aminoacylation ribozyme variant] | 0.714 | 1 | 1.22 | 0.928 | 1.64 | 0.998
7 | AUUACACUGGUCAUCGAGGGA [Fam2.1 aminoacylation ribozyme variant] | 1.4 | 1.64 | 1.26 | 1.37 | 0.709 | 2.72
8 | CCAGACUUCAAGCAAUCGGUU [Fam1B.1 aminoacylation ribozyme variant] | 2.69 | 2.02 | 2.04 | 2.43 | 7.61 | 6.59
9 | CUACUUCAAACGAUCGGGCUG [Fam1A.1 aminoacylation ribozyme variant] | 1.23 | 1.49 | 1.09 | 1.45 | 1.11 | 1.28
10 | CAACUUCAAACAAACGGUCUG [Fam1A.1 aminoacylation ribozyme variant] | 0.995 | 1.07 | 0.945 | 0.946 | 0.948 | 1.04
11 | AUUCACCUGAGUCAUCGGGUG [Fam2.2 aminoacylation ribozyme variant] | 15 | 5.26 | 13 | 5.03 | 35.9 | 9.59
12 | CGUACCCUGGUCAUCGAGUGA [Fam2.1 aminoacylation ribozyme variant] | 9.81 | 4.66 | 8.76 | 5.62 | 10.1 | 10.9
13 | AUUACCCUGGUCAUCGUGGGA [Fam2.1 aminoacylation ribozyme variant] | 1.58 | 1.18 | 1.33 | 1.22 | 4.91 | 1.98
